The numbers were not newly measured in PMC12608911, which cites them from elsewhere.

Series [1] deals with TREM-1 (Mus musculus) (UniProt Q9JKE2).
Series [2] has the same target. This is another data set of the same source.
Series [3] deals with TREM-1 (Homo sapiens) (UniProt Q9NP99).
Target sequence in this assay (Q9NP99 21-234): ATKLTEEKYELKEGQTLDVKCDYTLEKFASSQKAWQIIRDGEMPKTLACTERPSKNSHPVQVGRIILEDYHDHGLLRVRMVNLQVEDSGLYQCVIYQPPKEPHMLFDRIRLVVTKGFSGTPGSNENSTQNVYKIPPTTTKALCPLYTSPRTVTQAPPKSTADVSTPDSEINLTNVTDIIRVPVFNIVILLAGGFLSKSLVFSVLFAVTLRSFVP
Series [4] has the same target. This is another data set of the same source.
Target sequence in this assay (Q9NP99 21-205): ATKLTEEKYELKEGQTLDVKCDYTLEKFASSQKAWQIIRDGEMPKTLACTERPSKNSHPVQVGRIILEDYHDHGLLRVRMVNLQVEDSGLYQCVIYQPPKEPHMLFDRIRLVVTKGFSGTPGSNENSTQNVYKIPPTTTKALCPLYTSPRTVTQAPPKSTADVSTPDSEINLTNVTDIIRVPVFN
For series [5] the target is unchanged. The source holds these as a separate data set.
Target sequence in this assay (Q9NP99 21-205): as above
Series [6] has the same target. This is another data set of the same source.
Target sequence in this assay (Q9NP99 21-205): as above
The target in series [7] is TREM-1 (Mus musculus) (UniProt Q9JKE2). The source holds these as a separate data set.

Like-named read-outs stand apart in the source and are kept apart here.

Sequence of TREM-1 (Mus musculus) (Q9JKE2 21-230): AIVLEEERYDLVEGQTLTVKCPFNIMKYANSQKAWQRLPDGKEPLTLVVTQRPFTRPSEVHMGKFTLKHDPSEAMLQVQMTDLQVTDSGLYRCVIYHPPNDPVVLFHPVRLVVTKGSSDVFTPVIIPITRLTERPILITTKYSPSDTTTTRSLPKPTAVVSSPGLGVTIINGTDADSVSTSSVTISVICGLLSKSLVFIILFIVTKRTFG
Sequence of HSP70 N7 peptide (P0DMV8 2-641): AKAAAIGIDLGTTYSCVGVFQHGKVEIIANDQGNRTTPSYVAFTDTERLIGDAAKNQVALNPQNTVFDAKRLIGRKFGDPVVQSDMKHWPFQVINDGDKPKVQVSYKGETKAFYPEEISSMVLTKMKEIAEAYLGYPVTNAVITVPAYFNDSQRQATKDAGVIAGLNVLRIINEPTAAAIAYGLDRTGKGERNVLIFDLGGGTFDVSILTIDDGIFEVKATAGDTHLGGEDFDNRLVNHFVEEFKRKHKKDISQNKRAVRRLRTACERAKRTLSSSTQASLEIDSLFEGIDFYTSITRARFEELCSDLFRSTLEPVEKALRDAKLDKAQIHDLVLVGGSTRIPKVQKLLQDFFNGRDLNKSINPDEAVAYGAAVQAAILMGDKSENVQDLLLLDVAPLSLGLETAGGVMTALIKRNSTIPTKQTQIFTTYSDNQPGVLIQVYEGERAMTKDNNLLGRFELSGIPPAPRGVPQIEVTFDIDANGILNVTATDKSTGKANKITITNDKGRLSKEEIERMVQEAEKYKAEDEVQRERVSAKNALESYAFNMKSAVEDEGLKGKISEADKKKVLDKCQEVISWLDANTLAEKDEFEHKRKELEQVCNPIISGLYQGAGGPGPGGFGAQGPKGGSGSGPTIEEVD
Sequence of CIRP (P60824 whole entry): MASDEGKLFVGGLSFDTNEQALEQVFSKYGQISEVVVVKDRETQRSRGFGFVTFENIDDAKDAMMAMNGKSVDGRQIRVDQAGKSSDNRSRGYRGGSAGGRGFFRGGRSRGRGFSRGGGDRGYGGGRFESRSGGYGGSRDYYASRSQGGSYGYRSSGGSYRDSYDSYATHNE
Sequence of eCIRP (P60824 whole entry): as above
Sequence of HMGB1 (P63158 whole entry): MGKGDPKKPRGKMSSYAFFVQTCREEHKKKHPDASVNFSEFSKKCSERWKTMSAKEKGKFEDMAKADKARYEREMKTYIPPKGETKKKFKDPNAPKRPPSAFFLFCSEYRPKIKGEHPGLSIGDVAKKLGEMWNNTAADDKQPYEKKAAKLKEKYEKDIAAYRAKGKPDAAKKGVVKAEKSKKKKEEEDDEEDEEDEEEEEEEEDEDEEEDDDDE
Sequence of PGLYRP1 peptide N15 (O75594 22-196): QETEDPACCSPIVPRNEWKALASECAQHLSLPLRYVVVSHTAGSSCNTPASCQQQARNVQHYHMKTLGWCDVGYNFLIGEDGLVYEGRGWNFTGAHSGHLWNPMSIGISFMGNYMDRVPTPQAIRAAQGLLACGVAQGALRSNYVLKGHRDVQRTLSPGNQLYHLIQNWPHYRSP
Sequence of PGLYRP1 peptide 17 (O75594 22-196): as above
Sequence of PGLYRP1 peptide N9 (O75594 22-196): as above

As to CIRP (from UniProt P60824), the Kd with TREM-1 (Mus musculus) [1] was 120 nM.

For the substance HMGB1 (from UniProt P63158), the Kd in the series with TREM-1 (Mus musculus) [2] was 35400 nM.

Take HSP70 N7 peptide (from UniProt P0DMV8): the Kd with TREM-1 (Homo sapiens) [3] was 1.6 nM.

As to “PGLYRP1 peptide 17 (from UniProt O75594)”, the dissociation constant Kd with TREM-1 (Homo sapiens) [4] was 1.3 nM.

Consider “PGLYRP1 peptide N9 (from UniProt O75594)”, for which the Kd in the series with TREM-1 (Homo sapiens) [5] is 9.7 nM.

With “PGLYRP1 peptide N15 (from UniProt O75594)”, the Kd with TREM-1 (Homo sapiens) [6] is 7.4 nM.

Turning to eCIRP (from UniProt P60824), in the series with TREM-1 (Mus musculus) [7], the dissociation constant (Kd) is 117 nM.
